Measurements from patent US20250043302A1, “MUTATED HYDROXYPHENYLPYRUVATE DIOXYGENASE POLYPEPTIDE, AND CODING GENE AND USE THEREOF” (BEIJING DABEINONG BIOTECHNOLOGY CO., LTD., priority 2021, published 2025).

Experiments:
Assay type in all cases: in vivo
[1] = system: Arabidopsis thaliana T1 plants; assay: Mesotrione tolerance of transgenic Arabidopsis thaliana T1 plants (spray, bleached leaf area grade, damage score); set-up: Scores: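 damage score 0-100 computed as Σ(N×S)/(T×M)×100 over grades 0-3 with higher meaning more damage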; conditions: Table 9; for Classification and statistics of the grade of pesticide damage Grade 0: number of plants at grade 0; for Classification and statistics of the grade of pesticide damage Grade 1: number of plants at grade 1; for Classification and statistics of the grade of pesticide damage Grade 2: number of plants at grade 2; for Classification and statistics of the grade of pesticide damage Grade 3: number of plants at grade 3; for Scores: pesticide damage score
In short: (§1)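 Damage was assessed by bleaching grade (0 none; 1 <50%; 2 >50%; 3 100% of leaf area) one week after spraying. Sprays on 18-day-old T1 and wild-type plants used field-rate multiples: topramezone 25–200, isoxaflutole 35–280, mesotrione 52.5–420 g ai/ha.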

[2] = system: Arabidopsis thaliana T1 plants; assay: Topramezone tolerance of transgenic Arabidopsis thaliana T1 plants (spray, bleached leaf area grade, damage score); conditions: for Resistance evaluation / Scores / Grade 0 (classification and statistics of the grade of pesticide damage; number of plants) / Grade 1 (classification and statistics of the grade of pesticide damage; number of plants) / Grade 2 (classification and statistics of the grade of pesticide damage; number of plants) / Grade 3 (classification and statistics of the grade of pesticide damage; number of plants): Arabidopsis thaliana T1 plants; for Grade 0 (classification and statistics of the grade of pesticide damage; number of plants) / Grade 1 (classification and statistics of the grade of pesticide damage; number of plants) / Grade 2 (classification and statistics of the grade of pesticide damage; number of plants) / Grade 3 (classification and statistics of the grade of pesticide damage; number of plants): 16 plants
In short: as §1

[3] = system: Arabidopsis thaliana T1 plants; assay: Isoxaflutole tolerance of transgenic Arabidopsis thaliana T1 plants (spray, bleached leaf area grade, damage score); conditions: Arabidopsis thaliana T1 plants; for Grade 0 (classification and statistics of the grade of pesticide damage; number of plants) / Grade 1 (classification and statistics of the grade of pesticide damage; number of plants) / Grade 2 (classification and statistics of the grade of pesticide damage; number of plants) / Grade 3 (classification and statistics of the grade of pesticide damage; number of plants): 16 plants;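 for Scores: Weighted damage index from 0 to 100 where higher means more damage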
In short: as §1

[4] = topramezone 100 g ai/ha (4x field concentration)
[5] = topramezone 200 g ai/ha (8x field concentration)
[6] = isoxaflutole 140 g ai/ha (2x field concentration)
[7] = isoxaflutole 280 g ai/ha (4x field concentration)

B1: AsHPPDm-F372V-F383W-02: nucleotide sequence encoding Avena sativa HPPD with F372V+F383W; vector DBN11777 (nucleic acid)
DNA: ATGCCACCTACTCCAGCTACAGCTACTGGTGCTGCTGCTGCTGCCGTTACTCCTGAGCACGCTGCCAGGTCATTCCCCAGGGTGGTTCGCGTGAACCCCAGATCTGATAGGTTCCCAGTTCTGAGCTTCCACCATGTTGAGCTGTGGTGCGCTGATGCTGCTTCTGCTGCTGGCAGGTTCTCTTTCGCTCTTGGTGCTCCACTCGCTGCTAGATCTGATCTGTCTACAGGAAATAGCGCTCATGCCTCACTCCTGCTTCGCTCAGGTGCTTTGGCCTTCCTCTTCACCGCTCCATATGCTCCCCCACCTCAGGAGGCTGCTACTGCTGCTGCTACAGCCTCCATTCCAAGCTTCTCAGCTGATGCCGCTAGAACCTTCGCTGCTGCTCATGGACTTGCCGTGAGGTCTGTTGGTGTTCGCGTGGCTGATGCTGCTGAGGCTTTCAGAGTTTCCGTTGCCGGCGGAGCTAGGCCAGCTTTCGCTCCTGCTGATTTGGGACATGGTTTCGGCCTGGCTGAGGTTGAGCTTTACGGTGACGTGGTTCTCCGCTTCGTGTCTTACCCAGATGAGACTGACCTGCCTTTCCTTCCCGGCTTCGAGAGAGTTTCCTCTCCTGGTGCCGTGGATTACGGCCTGACAAGGTTCGACCACGTGGTTGGAAACGTTCCCGAGATGGCTCCAGTGATCGATTACATGAAGGGCTTCCTTGGATTCCATGAGTTCGCCGAGTTCACTGCTGAGGACGTGGGAACCACTGAGTCCGGTTTGAACTCTGTGGTTCTCGCCAACAATTCTGAGGCTGTTTTGCTCCCTCTGAATGAGCCTGTGCATGGAACCAAGAGGAGAAGCCAGATTCAAACTTACCTGGAGTACCACGGTGGCCCTGGAGTTCAGCATATCGCCCTTGCTTCTAATGATGTGTTGCGCACACTCAGAGAGATGCGCGCCAGAACCCCCATGGGAGGTTTCGAGTTCATGGCCCCACCACAGGCTAAGTACTACGAGGGCGTTAGAAGGATTGCTGGAGACGTGTTGAGCGAGGAGCAGATCAAGGAGTGCCAAGAGCTGGGTGTTCTTGTGGATAGGGATGACCAGGGCGTTCTGCTTCAAATTGTCACTAAGCCAGTGGGCGACCGCCCTACATTCTGGCTTGAGATGATTCAAAGAATCGGCTGCATGGAGAAGGATGAGGTTGGACAGGAGTACCAAAAGGGCGGATGCGGTGGCTTCGGAAAGGGTAACTTCAGCGAGTTGTTCAAGTCAATCGAGGACTACGAGAAGAGCCTCGAGGTGAAGCAGTCAGTGGTTGCCCAAAAGTCCTGA
modifications: AsHPPDm-F372V-F383W-02 Nucleotide Sequence
notes: vector DBN11777
10: Scores [3, 7]
0: Classification and statistics of the grade of pesticide damage Grade 1 ([1]; mesotrione 210 g ai/ha (2×)) | Classification and statistics of the grade of pesticide damage Grade 2 ([1]; mesotrione 210 g ai/ha (2×)) | Classification and statistics of the grade of pesticide damage Grade 3 ([1]; mesotrione 210 g ai/ha (2×)) | Scores ([1]; mesotrione 210 g ai/ha (2×)) | Classification and statistics of the grade of pesticide damage Grade 2 ([1]; mesotrione 420 g ai/ha (4×)) | Classification and statistics of the grade of pesticide damage Grade 3 ([1]; mesotrione 420 g ai/ha (4×)) | Scores [2, 4] | Grade 1 (classification and statistics of the grade of pesticide damage; number of plants) [2, 4] | Grade 2 (classification and statistics of the grade of pesticide damage; number of plants) [2, 4] | Grade 3 (classification and statistics of the grade of pesticide damage; number of plants) [2, 4] | Scores [2, 5] | Grade 1 (classification and statistics of the grade of pesticide damage; number of plants) [2, 5] | Grade 2 (classification and statistics of the grade of pesticide damage; number of plants) [2, 5] | Grade 3 (classification and statistics of the grade of pesticide damage; number of plants) [2, 5] | Scores [3, 6] | Grade 1 (classification and statistics of the grade of pesticide damage; number of plants) [3, 6] | Grade 2 (classification and statistics of the grade of pesticide damage; number of plants) [3, 6] | Grade 3 (classification and statistics of the grade of pesticide damage; number of plants) [3, 6] | Grade 3 (classification and statistics of the grade of pesticide damage; number of plants) [3, 7]
Highly resistant: Resistance evaluation ([1]; mesotrione 210 g ai/ha (2×)) | Resistance evaluation ([1]; mesotrione 420 g ai/ha (4×)) | Resistance evaluation [2, 4] | Resistance evaluation [2, 5] | Resistance evaluation [3, 6] | Resistance evaluation [3, 7]
2: Scores ([1]; mesotrione 420 g ai/ha (4×))
15: Classification and statistics of the grade of pesticide damage Grade 0 ([1]; mesotrione 420 g ai/ha (4×))
12: Grade 0 (classification and statistics of the grade of pesticide damage; number of plants) [3, 7]
16: Classification and statistics of the grade of pesticide damage Grade 0 ([1]; mesotrione 210 g ai/ha (2×)) | Grade 0 (classification and statistics of the grade of pesticide damage; number of plants) [2, 4] | Grade 0 (classification and statistics of the grade of pesticide damage; number of plants) [2, 5] | Grade 0 (classification and statistics of the grade of pesticide damage; number of plants) [3, 6]
1: Classification and statistics of the grade of pesticide damage Grade 1 ([1]; mesotrione 420 g ai/ha (4×)) | Grade 2 (classification and statistics of the grade of pesticide damage; number of plants) [3, 7]
3: Grade 1 (classification and statistics of the grade of pesticide damage; number of plants) [3, 7]
highly-resistant: tolerance to topramezone (resistance class) ([2]; topramezone at four-fold or eight-fold field concentration)
